Laboratory results: the Human Domainome abundance scans (Beltran et al. 2025)

B1: Myocardin, residues 363 to 406; numbered along this chain, Q8IZQ8 (parent)
chain: KPGPLPPNLDDLKVSELRQQLRIRGLPVSGTKTALMDRLRPFQD

Variants of: B1
Assay: abundance fitness (aPCA) (normalised: wild type 0, dead -1); higher = more abundant; growth selection in yeast, the domain comes from the species named
Conditions: Homo sapiens

Abundance fitness of substitutions, site by site:
R22: Q -0.928 | G -0.531 | L -0.374 | V -0.557 | C -0.194 | N -0.371 | P -0.818 | M -0.619 | K 0.063 | A -0.138 | W -0.771 | S -0.21 | H -0.624 | I -0.384 | T -0.258
L35: Q -0.226 | G -0.489 | D -0.459 | C -0.184 | V -0.459 | I 0.092 | N -0.613 | S -0.418 | T -0.551 | R -0.799 | K -0.469 | W -0.561 | M 0.064 | H -0.943 | P -0.578 | E -0.293
T33: K 0.016 | A 0.077 | W -0.467 | R -0.055 | I 0.085 | S -0.071 | N -0.001 | M -0.402 | F -0.144 | D 0.138 | C -0.072 | P -0.17 | E 0.292 | L -0.19 | V 0.016 | Q -0.385
L26: K -0.404 | A -0.479 | V -0.732 | R -0.858 | H -1.1 | Q -0.503 | W -0.951 | T -0.805 | G -0.586 | M 0.075 | E -0.293 | S -0.562 | P -0.676 | I -0.431
G30: D -0.504 | V -0.894 | Y -0.951 | N -0.871 | L -0.879 | C -0.709 | R -0.876 | S -0.779 | E -0.607 | A -0.967 | T -0.901
M36: A -0.255 | C -0.454 | E -0.463 | I -0.125 | P -0.419 | Q -0.398 | D -0.505 | V -0.183 | G -0.668 | K -0.083 | T -0.27 | R -0.216 | W -0.935 | S -0.64 | L -0.449
R40: W -0.731 | L -0.284 | A 0.092 | G -0.294 | K 0.194 | N -0.698 | S -0.107 | Q -0.042 | E -0.152 | V -0.376 | I -0.205 | M -0.25 | D -0.614 | P -0.346 | T -0.12 | C -0.499
I23: K -0.153 | N -0.45 | F -0.378 | C -0.315 | V -0.092 | L -0.021 | Y 0.013 | R -0.211 | A 0.091 | Q -0.229 | T -0.261 | E 0.043 | P -0.605 | S 0.033 | W -0.291 | G -0.24
Q20: P -0.785 | K -0.314 | I 0.05 | S -0.711 | Y -0.38 | L 0.073 | H 0.073 | V -0.57 | W -0.767 | R -0.602
P41: I -0.001 | D -0.325 | C -0.151 | A 0.037 | F -0.27 | H -0.14 | G -0.084 | E 0.087
R24: P -0.456 | S -0.881 | W -0.732 | F -0.819 | G -0.878 | D -0.536 | K -0.387 | M 0.092 | T -0.905 | Y -1.16 | Q -0.73 | L -0.429 | V -0.528 | A -0.695 | N -0.695 | E -0.56
P27: M -0.324 | D 0.162 | I -0.374 | R -0.344 | E -0.245 | A -0.376 | W -0.951 | T -0.39 | G -0.41 | C -0.216 | Y -0.891 | H -0.149 | S -0.043 | Q -0.05 | V -0.73 | L -0.657
L39: H -0.611 | F -0.755 | M -0.409 | Q -0.465 | E -0.562 | Y -0.505 | G -0.528 | D -0.283 | T -0.625 | R -0.776 | I -0.474 | K -0.595 | C -0.785 | W -0.77 | S -0.601 | A -0.641 | V -0.594 | P -0.373
V28: T 0.153 | Q 0.027 | K -0.436 | H -0.264 | P -0.198 | S 0.123 | I 0.217 | D 0.294 | L -0.07 | R -0.671 | E 0.082 | G -0.168 | W -0.13 | A -0.002 | C 0.207 | M 0.017
D37: H -0.385 | S -0.892 | K -0.245 | E 0.246 | A -0.265 | F -1.21 | N 0.227 | Y -0.271 | W -0.829 | G -0.404 | T -0.452 | V -0.632 | C -0.39 | I -0.594 | Q -0.165 | L -0.51 | M -0.264 | P -0.966
L21: Q -0.517 | D -0.361 | C -0.271 | E -0.42 | P -0.523 | K -0.296 | V -0.432 | W -1.02 | G -0.68 | N -0.244 | A -0.037 | S -0.94 | M -0.321
S29: I -0.376 | Y -0.095 | V -0.097 | N -0.264 | H -0.108 | A -0.071 | R -0.362 | G 0.042 | F -0.245 | Q 0.006 | M -0.003 | T -0.001 | P -0.605 | L -0.333 | K -0.113 | E 0.129 | C -0.191
R38: S -0.479 | L -0.671 | G -0.469 | T -0.316 | K -0.39 | W -1.02 | E -0.451 | A -0.592 | Y -0.519 | C -0.929 | D -0.795 | V -0.735 | N -0.765 | H -1.2 | M -0.445 | P -0.219 | F -0.907
K32: L -0.784 | T -0.349 | W -0.759 | I -0.488 | G -0.856 | F -0.642 | Y -0.593 | R -0.012 | D -0.489 | C -0.763 | Q -0.58 | M -0.696 | S -0.905 | P -0.583 | V -0.357 | E -0.286 | A -0.449
G25: E -0.274 | K 0.068 | Q -0.325 | D -0.246 | H 0.308 | F -0.175 | V -1.38 | S -0.318 | A -0.39 | N -0.024 | P -0.591 | C -0.342 | L -1.12 | T -0.56 | W -1.15 | M -0.358 | R -0.401
T31: W -0.994 | L -0.344 | Q -0.273 | R -0.319 | F -0.718 | N 0.352 | E -0.01 | G -0.214 | V -0.189 | P -0.222 | C -0.052 | S 0.103 | H -0.331 | M -0.62 | D 0.155 | K -0.217 | A 0.078
A34: P -0.825 | L -0.721 | W -1.14 | V 0.026 | T -0.076 | K -0.4 | Q -0.601 | C -0.467 | R -0.642 | F -0.909 | G -0.556 | S -0.223 | D 0.137 | M -0.262 | E 0.011
